Source: US8030453B2, “Methods of making an antibody that binds a chemerin polypeptide” (Euroscreen S.A., priority 2001, dated 2011)

Legend:
B16F0 melanoma cell line = experiment: in vitro proliferation of transfected B16F0 cells (BrdU, cell cycle, cell counting); type: cell-based, mouse; conditions: expression of Chemerin in B16F0 cells
Protocol: (§1) B16-F0 melanoma cells (ATCC) were transfected with the pEFIN3-mouse chemerin plasmid using FuGene6, and selected with 800 μg/ml G418. Clones were characterized by assaying the conditioned medium on chemerinRexpres sing cells. In vitro proliferation rate was determined by BrdU incorporation as described30. For in vivo studies, cells were washed twice with PBS, and grafted (6×10^5 cells in 0.1 ml PBS) subcutaneously into the back of 10-week-old C57B16 mice (5 to 11 mice per group, Harlan, The Netherlands). Perpendicular tumor diameters (D and d) were measured every 2 days, and the volume was estimated as V=π(d/2)(D/2)(d/2). Statistical analysis was performed by using the unpaired non parametric Mann-Whitney test. For microscopic analysis, tumors were embedded in OCT, snap-frozen in −80° C. isopentane and cut at 12 μm. Sections were stained with hematoxylin-eosin (HE) for routine analysis. All animal procedures were approved by the ethical committee of the Medical School of the Universite Libre de Bruxelles.

B16-F0 melanoma cells = experiment: B16-F0 melanoma model, subcutaneous graft in C57Bl6 mice; type: in vivo, mouse
Protocol: as §1

B1: mouse Chemerin: mouse Chemerin expressed by B16F0 melanoma cells transfected with a bicistronic expression vector containing the mouse Chemerin cDNA (protein)
chain: EPELSETQRRSLQVALEEFHKHPPVQLAFQEIGVDRAEEVLFSAGTFVRLEFKLQQTNCPKKDWKKPECTIKPNGRRRKCLACIKMDPKGKILGRIVHCPILKQGPQDPQELQCIKIAQAGEDPHGYFLPGQFAFSRALRTK
For B1, the “growth rate of the cell lines” value (B16F0 melanoma cell line) was “did not modify the growth rate”, the “average reduction of size of developing tumors” value (B16-F0 melanoma cells; 21-24 days after the graft of Chemerin-expressing cells vs control) was 70% and the “mice that did not develop tumors” value (B16-F0 melanoma cells; three series combined, up to four weeks after graft, 0/24 in control group, p<0.05) was 5 out of 24.
